Source: publication doi:10.1101/569251 (bioRxiv, 2019)

Biological target: the molecule itself

B1: SEPT7 (residues 29-437) with N-terminal His-tag (domain or fragment, human, UniProt Q16181-1 29-437, looked up)
chain: GYVGFANLPNQVYRKSVKRGFEFTLMVVGESGLGKSTLINSLFLTDLYSPEYPGPSHRIKKTVQVEQSKVLIKEGGVQLLLTIVDTPGFGDAVDNSNCWQPVIDYIDSKFEDYLNAESRVNRRQMPDNRVQCCLYFIAPSGHGLKPLDIEFMKRLHEKVNIIPLIAKADTLTPEECQQFKKQIMKEIQEHKIKIYEFPETDDEEENKLVKKIKDRLPLAVVGSNTIIEVNGKRVRGRQYPWGVAEVENGEHCDFTILRNMLIRTHMQDLKDVTNNVHYENYRSRKLAAVTYNGVDNNKNKGQLTKSPLAQMEEERREHVAKMKKMEMEMEQVFEMKVKEKVQKLKDSEAELQRRHEQMKKNLEAQHKELEEKRRQFEDEKANWEAQQRILEQQNSSRTLEKNKKKGKIF
binding result: binds
